Results taken from US20220177587A1, “METHODS AND USES OF VARIANT CD80 FUSION PROTEINS AND RELATED CONSTRUCTS” (Alpine Immune Sciences, Inc., priority 2018, published 2022).
Positions count from the first letter of the chain named. Numbers in names are those of the source. Where “and” joins values, the source holds several entries; their conditions need not be identical. Identical values can stand only once.

B1: I67F/L70R/E88G/A91G/I118V/T120S/T130A (protein)
chain: VIHVTKEVKEVATLSCGHNVSVEELAQTRIYWQKEKKMVLTMMSGDMNIWPEYKNRTIFDITNNLSFVIRALRPSDEGTYECVVLKYGKDGFKREHLAEVTLSVKADFPTPSISDFEVPSSNIRRIICSASGGFPEPHLSWLENGEELNAINTTVSQDPETELYAVSSKLDFNMTTNHSFMCLIKYGHLRVNQTFNWNTTKQEHFPDN
modifications: CD80 v148 ECD
B2: E24G/L25P/L70Q/A91G/I118V/T120S/N152T (protein)
chain: B1 chain with E24G, L25P, F67I, R70Q, G88E, A130T, N152T
modifications: CD80 v149 ECD
B3: A91G/F92L/F108L/1118V/T120S (protein)
chain: B1 chain with F67I, R70L, G88E, F92L, F108L, A130T
B4: E88D/K89R/D90K/A91G/F92Y/K93R (protein)
chain: VIHVTKEVKEVATLSCGHNVSVEELAQTRIYWQKEKKMVLTMMSGDMNIWPEYKNRTIFDITNNLSIVILALRPSDEGTYECVVLKYDRKGYRREHLAEVTLSVKAD
modifications: CD80 v48 IgV
B5: E88D/K89R/D90K/A91G/F92Y/K93R/N122S/N177S (protein)
chain: VIHVTKEVKEVATLSCGHNVSVEELAQTRIYWQKEKKMVLTMMSGDMNIWPEYKNRTIFDITNNLSIVILALRPSDEGTYECVVLKYDRKGYRREHLAEVTLSVKADFPTPSISDFEIPTSSIRRIICSTSGGFPEPHLSWLENGEELNAINTTVSQDPETELYAVSSKLDFNMTTSHSFMCLIKYGHLRVNQTFNWNTTKQEHFPDN
B6: T41I/A91G (protein)
chain: B1 chain with T41I, F67I, R70L, G88E, V118I, S120T, A130T
modifications: CD80 v44 ECD
B7: K36G/L40M (protein)
chain: B1 chain with K36G, L40M, F67I, R70L, G88E, G91A, V118I, S120T, A130T
B8: K36G/K37Q/M38I/L40M (protein)
chain: VIHVTKEVKEVATLSCGHNVSVEELAQTRIYWQKEGQIVMTMMSGDMNIWPEYKNRTIFDITNNLSIVILALRPSDEGTYECVVLKYEKDAFKREHLAEVTLSVKADFPTPSISDFEIPTSNIRRIICSTSGGFPEPHLSWLENGEELNAINTTVSQDPETELYAVSSKLDFNMTTNHSFMCLIKYGHLRVNQTFNWNTTKQEHFPDN
modifications: CD80 v49 ECD
B9: K36G/K37Q/M38I/L40M/F59L/E81V/L85R/K89N/A91T/F92P/K93V/R94L/E99G/T130A/N149S (protein)
chain: VIHVTKEVKEVATLSCGHNVSVEELAQTRIYWQKEGQIVMTMMSGDMNIWPEYKNRTILDITNNLSIVILALRPSDEGTYVCVVRKYENDTPVLEHLAGVTLSVKADFPTPSISDFEIPTSNIRRIICSASGGFPEPHLSWLENGEELSAINTTVSQDPETELYAVSSKLDFNMTTNHSFMCLIKYGHLRVNQTFNWNTTKQEHFPDN
B10: R29D/Y31L/Q33H/K36G/M38I/T41A/M43R/M47T/E81V/L85R/K89N/A91T/F92P/K93V/R94L/I118T/N149S (protein)
chain: VIHVTKEVKEVATLSCGHNVSVEELAQTDILWHKEGKIVLAMRSGDTNIWPEYKNRTIFDITNNLSIVILALRPSDEGTYVCVVRKYENDTPVLEHLAEVTLSVKADFPTPSISDFETPTSNIRRIICSTSGGFPEPHLSWLENGEELSAINTTVSQDPETELYAVSSKLDFNMTTNHSFMCLIKYGHLRVNQTFNWNTTKQEHFPDN
B11: R29D/Y31L/Q33H/K36G/M38I/T41A/M43R/M47T/E81V/L85R/K89N/A91T/F92P/K93V/R94L/N144S/N149S (protein)
chain: B10 chain with T118I, N144S
B12: E24G/R29D/Y31L/Q33H/K36G/M38I/T41A/M43R/M47T/F59L/E81V/L85R/K89N/A91T/F92P/K93V/R94L/H96R/N149S/C182S (protein)
chain: B10 chain with E24G, F59L, H96R, T118I, C182S
B13: R29D/Y31L/Q33H/K36G/M38I/T41A/M43R/M47T/E81V/L85R/K89N/A91T/F92P/K93V/R94L/N149S (protein)
chain: B10 chain with T118I
B14: R29D/Y31L/Q33H/K36G/M38I/T41A/M42T/M43R/M47T/E81V/L85R/K89N/A91T/F92P/K93V/R94L/L148S/N149S (protein)
chain: B10 chain with M42T, T118I, L148S
B15: R29V/M43Q/E81R/L85I/K89R/D90L/A91E/F92N/K93Q/R94G (protein)
chain: VIHVTKEVKEVATLSCGHNVSVEELAQTVIYWQKEKKMVLTMQSGDMNIWPEYKNRTIFDITNNLSIVILALRPSDEGTYRCVVIKYERLENQGEHLAEVTLSVKADFPTPSISDFEIPTSNIRRIICSTSGGFPEPHLSWLENGEELNAINTTVSQDPETELYAVSSKLDFNMTTNHSFMCLIKYGHLRVNQTFNWNTTKQEHFPDN
B16: Q33L/E35D/M47L/A71G/F925 (protein)
chain: VIHVTKEVKEVATLSCGHNVSVEELAQTRIYWLKDKKMVLTMMSGDLNIWPEYKNRTIFDITNNLSIVILGLRPSDEGTYECVVLKYEKDASKREHLAEVTLSVKADEPKSSDKTHTCPPCPAPEAEGAPSVFLFPPKPKDTLMISRTPEVTCVVVDVSHEDPEVKFNWYVDGVEVHNAKTKPREEQYNSTYRVVSVLTVLHQDWLNGKEYKCKVSNKALPAPIEKTISKAKGQPREPQVYTLPPSREEMTKNQVSLTCLVKGFYPSDIAVEWESNGQPENNYKTTPPVLDSDGSFFLYSKLTVDKSRWQQGNVFSCSVMHEALHNHYTQKSLSLSPG
B17: H18Y/E35DN68M/L97Q (protein)
chain: B16 chain with H18Y, L33Q, L47M, V68M, G71A, S92F, L97Q
B18: H18Y/E35D/N48K (protein, UniProt P33681 35-288, looked up, variant H18Y E35D N48K)
T-lymphocyte activation …: VIHVTKEVKEVATLSCGYNVSVEELAQTRIYWQKDKKMVLTMMSGDMKIWPEYKNRTIFDITNNLSIVILALRPSDEGTYECVVLKYEKDAFKREHLAEVTLSVKADFPTPSISDFEIPTSNIRRIICSTSGGFPEPHLSWLENGEELNAINTTVSQDPETELYAVSSKLDFNMTTNHSFMCLIKYGHLRVNQTFNWNTTKQEHFPDNLLPSWAITLISVNGIFVICCLTYCFAPRCRERRRNERLRRESVRPV
B19: Q27H/E35D/D46V/M47L/A71G (protein, UniProt P33681 35-288, looked up, variant Q27H E35D D46V M47L A71G)
T-lymphocyte activation …: B18 T-lymphocyte activation … with Y18H, Q27H, D46V, M47L, K48N, A71G
B20: E35D/T41S/M47V/A71G/K89N (protein, UniProt P33681 35-288, looked up, variant E35D T41S M47V A71G K89N)
T-lymphocyte activation …: B18 T-lymphocyte activation … with Y18H, T41S, M47V, K48N, A71G, K89N
B21: E35D/D46E/M47V/A71D (protein, UniProt P33681 35-288, looked up, variant E35D D46E M47V A71D)
T-lymphocyte activation …: B18 T-lymphocyte activation … with Y18H, D46E, M47V, K48N, A71D
B22: E35D/M47V/N48T/L85Q (protein, UniProt P33681 35-288, looked up, variant E35D M47V N48T L85Q)
T-lymphocyte activation …: B18 T-lymphocyte activation … with Y18H, M47V, K48T, L85Q

tested on: allogeneic CD4+ T cells; assay: Mixed Lymphocyte Reaction (MLR), IFN-gamma; format: cell-based, human; settings: Table E32; variant ECD-Fc in MLR assay; culture supernatant
Description: Soluble rCD80.Fc bioactivity was tested in a human Mixed Lymphocyte Reaction (MLR). Human primary dendritic cells (DC) were generated by culturing monocytes isolated from PBMC (BenTech Bio, USA) in vitro for 7 days with 500U/ml rIL-4 (R&D Systems, USA) and 250 U/ml rGM-CSF (R&D Systems, USA) in Ex-Vivo 15 media (Lonza, Switzerland). 10,000 matured DC and 100,000 purified allogeneic CD4+ T cells (BenTech Bio, USA) were co-cultured with variant CD80 Fc fusion proteins and controls in 96 well round bottom plates in 200 μl final volume of Ex-Vivo 15 media. On day 5, IFN-gamma secretion in culture supernatants was analyzed using the Human IFN-gamma Duoset ELISA kit (R&D Systems, USA). Optical density was measured by VMax ELISA Microplate Reader (Molecular Devices, USA) and quantitated against titrated rIFN-gamma standard included in the IFN-gamma Duo-set kit (R&D Systems, USA).

Point of comparison: B2, “MLR IFN-gamma levels” value 969 pg/mL. Against it:
- B1 — within 1.5-fold, 1003 pg/mL
- B3 — within 1.5-fold, 665 pg/mL

same assay, conditions: Table E33; culture supernatant

For B4, the “MLR IFN-gamma levels” value was 9356 pg/mL and 5922 pg/mL.

Point of comparison: B13, “MLR IFN-gamma levels” value 24029 pg/mL. Against it:
- B5 — 3.8-fold lower, 6345 pg/mL
- B6 — within 1.5-fold, 26052 pg/mL
- B7 — within 1.5-fold, 30558 pg/mL
- B8 — 30-fold lower, 811 pg/mL
- B9 — 7.8-fold lower, 3095 pg/mL
- B10 — 4.8-fold lower, 5028 pg/mL
- B11 — 3-fold lower, 7943 pg/mL
- B12 — 1.8-fold lower, 13146 pg/mL
- B14 — within 1.5-fold, 17387 pg/mL
- B15 — 2.1-fold lower, 11695 pg/mL

tested on: human pan T cells; assay: Anti-CD3 coimmobilization assay, IFN-gamma; format: cell-based; settings: Table E32; variant ECD-Fc coimmobilized with anti-CD3; culture supernatant
Summary of the method: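 Plates coated overnight with 1 nM or 4 nM OKT3 anti-CD3 plus 1–80 nM rCD80.Fc variants, then washed. Purified human pan T cells or BC3 T cell clone (100,000/well) cultured 3 days in Ex-Vivo 15; supernatant IFN-gamma measured by ELISA.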

Point of comparison: B2, “Coimmobilization with anti CD3 IFN-gamma” value 101 pg/mL. Against it:
- B1 — 1.6-fold lower, 62 pg/mL
- B3 — 1.7-fold lower, 59 pg/mL

same assay, conditions: Table E33; culture supernatant, 3 days

For B4, the “Coimmobilization with anti-CD3 IFN-gamma” value was 1125 pg/mL and 944 pg/mL.

Point of comparison: B14, “Coimmobilization with anti-CD3 IFN-gamma” value 464 pg/mL. Against it:
- B5 — 1.7-fold higher, 773 pg/mL
- B6 — within 1.5-fold, 433 pg/mL
- B7 — 1.5-fold higher, 699 pg/mL
- B8 — within 1.5-fold, 427 pg/mL
- B9 — within 1.5-fold, 507 pg/mL
- B10 — within 1.5-fold, 387 pg/mL
- B11 — within 1.5-fold, 400 pg/mL
- B12 — within 1.5-fold, 406 pg/mL
- B13 — within 1.5-fold, 405 pg/mL
- B15 — within 1.5-fold, 342 pg/mL

target: CD28 (Homo sapiens, UniProt P10747); assay: Jurkat/IL2 + K562/OKT3/PD-L1 reporter assay; format: cell-based; parameters: host or cells: Jurkat cells expressing an IL-2-luciferase reporter; settings: Table E7; K562/OKT3/PD-L1 aAPC; 50 nM

Point of comparison: B17, “Fold Increase over WT CD80-IgV-Fc” value 7.7. Against it:
- B16 — lower, 0.7

Point of comparison: B17, “Relative Luciferase Units (RLU), CD80-Fc Conc. 50 nM” value 4336 RLU. Against it:
- B16 — lower, 394 RLU

same assay, conditions: Table E8; K562/OKT3/PD-L1 aAPC; 50 nM

Point of comparison: B19, “Relative Luciferase Units (RLU), CD80-Fe Cone 50 nM” value 978 RLU. Against it:
- B18 — higher, 1230 RLU
- B20 — higher, 1023 RLU
- B21 — lower, 683 RLU
- B22 — lower, 897 RLU

For B22, the “Fold Increase over WT CD80-IgV-Fe” value was 4.4.
